Measured values as given in article PMC10308643, “Nesfatin-3 possesses divalent metal ion binding properties, which remain hidden in the nucleobindin-2 precursor protein” (Cell Communication and Signaling : CCS, 2023).
Values joined by “and” are separate entries in the source; they are usually repeats but may differ in a detail not shown here. Equal values may be shown once. Each block holds one molecule with its values, some of them ahead of it.

Columns and labels:
[1] = biological target: nesfatin-3 from Gallus gallus (Gallus gallus); test: AUC; sedimentation velocity, c(s) analysis; 0.5, 0.75 and 1.0 mg/ml protein in 20 mM Tris pH 7.5, 150 mM NaCl, 800 µM ZnCl2; 20 °C, 50 000 rpm; monomer-dimer(-tetramer)
[2] = biological target: nesfatin-3 from Gallus gallus (Gallus gallus); test: AUC; sedimentation velocity, c(s) analysis; 0.5, 0.75 and 1.0 mg/ml protein in 20 mM Tris pH 7.5, 150 mM NaCl, 10 mM CaCl2; 20 °C, 50 000 rpm; monomer-dimer
[3] = biological target: nesfatin-3 from Gallus gallus (Gallus gallus); test: AUC; sedimentation velocity, c(s) analysis; 0.5, 0.75 and 1.0 mg/ml protein in 20 mM Tris pH 7.5, 150 mM NaCl, 10 mM MgCl2; 20 °C, 50 000 rpm; monomer-dimer
[4] = biological target: nesfatin-3 from Gallus gallus (Gallus gallus); test: AUC; sedimentation velocity, c(s) analysis; 0.5, 0.75 and 1.0 mg/ml protein in 20 mM Tris pH 7.5, 150 mM NaCl, 5 mM EDTA (apo form); 20 °C, 50 000 rpm; monomer-dimer
[5] = biological target: nesfatin-3 from Gallus gallus (Gallus gallus); test: AUC; sedimentation velocity, c(s) analysis; 0.5, 0.75 and 1.0 mg/ml protein in 20 mM Tris pH 7.5, 150 mM NaCl, 300 µM ZnCl2; 20 °C, 50 000 rpm; monomer-dimer
[6] = biological target: nesfatin-3 from Gallus gallus (Gallus gallus); test: AUC; sedimentation velocity, c(s) analysis; 0.5, 0.75 and 1.0 mg/ml protein in 20 mM Tris pH 7.5, 150 mM NaCl, 100 µM ZnCl2; 20 °C, 50 000 rpm; monomer-dimer(-tetramer)
[7] = biological target: the molecule itself; test: AUC; sedimentation velocity, c(s) analysis; 0.5, 0.75 and 1.0 mg/ml protein in 20 mM Tris pH 7.5, 150 mM NaCl, 5 mM EDTA (apo form); 20 °C, 50 000 rpm; monomer-dimer
[8] = biological target: the molecule itself; test: as above; remark: listed apart in the source
[9] = biological target: the molecule itself; test: AUC; sedimentation velocity, c(s) analysis; 0.5, 0.75 and 1.0 mg/ml protein in 20 mM Tris pH 7.5, 150 mM NaCl, 10 mM MgCl2; 20 °C, 50 000 rpm; monomer-dimer

percent dimer [1]: 90% and 91% and 88% | percent dimer [2]: 76% and 77% and 74% | dimer-to-monomer ratio (dimer:monomer) [3]: 9 | percent dimer [3]: 100% and 83% and 92% | percent dimer [4]: 75% and 76% and 77% | stoichiometry N [4]: 2 | percent dimer [5]: 59% and 64% and 70% | percent dimer [6]: 74% and 80% and 79%
Molecule: nesfatin-3 from Gallus gallus (domain or fragment)

B1: nesfatin-3 from Homo sapiens (domain or fragment, UniProt P80303 190-420, looked up)
chain: EYLKTLNEEKRKEEESKFEEMKKKHENHPKVNHPGSKDQLKEVWEETDGLDPNDFDPKTFFKLHDVNSDGFLDEQELEALFTKELEKVYDPKNEEDDMVEMEEERLRMREHVMNEVDTNKDRLVTLEEFLKATEKKEFLEPDSWETLDQQQFFTEEELKEYENIIALQENELKKKADELQKQKEELQRQHDQLEAQKLEYHQVIQQMEQKKLQQGIPPSGPAGELKFEPHI
notes: also called hsNesfatin-3; apo-hsNesfatin-3; source: expressed from pQE-80L/HRV3C and purified as reported previously [16, 17]
stoichiometry N [7]: 2 | percent dimer [8]: 100% | percent dimer [9]: 100%
